Target: integrin-associated protein (CD47/IAP) (human (endogenous in primary articular chondrocytes))
Sequence (Q08722 19-323): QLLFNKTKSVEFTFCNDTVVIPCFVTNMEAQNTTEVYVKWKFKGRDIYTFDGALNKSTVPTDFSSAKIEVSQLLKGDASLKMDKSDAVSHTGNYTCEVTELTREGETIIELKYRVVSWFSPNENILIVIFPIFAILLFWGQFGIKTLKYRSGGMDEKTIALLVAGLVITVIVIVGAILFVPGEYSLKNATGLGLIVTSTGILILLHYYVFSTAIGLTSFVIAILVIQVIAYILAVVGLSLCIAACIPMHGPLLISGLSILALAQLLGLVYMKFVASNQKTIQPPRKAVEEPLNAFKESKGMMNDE

“thrombospondin-1 (TSP-1) (from UniProt P07996 19-1170) (natural protein)” gave a percentage change of membrane potential of normal chondrocytes after 20 min of 0.33 Hz mechanical stimulation in the presence of anti-CD47/IAP antibody Bric 126 (without antibody +21) of 2%, a percentage change of membrane potential of osteoarthritic chondrocytes after 20 min of 0.33 Hz mechanical stimulation in the presence of anti-CD47/IAP antibody Bric 126 (without antibody -42) of -2% and a percentage change of membrane potential of osteoarthritic chondrocytes after 20 min of 0.33 Hz mechanical stimulation in the presence of anti-TSP-1 antibody (without antibody -42) of 3%.
